# According to paper PMC9245377:
# Assays:
# Assay in all cases: ELISA; binding of recombinant InvL to α5β1 integrin, collagen V, fibrinogen, mucin or BSA (negative control); two biological replicates; protocol based on ref. 50, details in the supplemental material
# fibrinogen = target: fibrinogen
# collagen V = target: collagen V
# α5β1 integrin = α5β1 integrin (UniProt P08648)
# Sequence of UniProt P08648 (P08648 42-1049, chain 1 of 2): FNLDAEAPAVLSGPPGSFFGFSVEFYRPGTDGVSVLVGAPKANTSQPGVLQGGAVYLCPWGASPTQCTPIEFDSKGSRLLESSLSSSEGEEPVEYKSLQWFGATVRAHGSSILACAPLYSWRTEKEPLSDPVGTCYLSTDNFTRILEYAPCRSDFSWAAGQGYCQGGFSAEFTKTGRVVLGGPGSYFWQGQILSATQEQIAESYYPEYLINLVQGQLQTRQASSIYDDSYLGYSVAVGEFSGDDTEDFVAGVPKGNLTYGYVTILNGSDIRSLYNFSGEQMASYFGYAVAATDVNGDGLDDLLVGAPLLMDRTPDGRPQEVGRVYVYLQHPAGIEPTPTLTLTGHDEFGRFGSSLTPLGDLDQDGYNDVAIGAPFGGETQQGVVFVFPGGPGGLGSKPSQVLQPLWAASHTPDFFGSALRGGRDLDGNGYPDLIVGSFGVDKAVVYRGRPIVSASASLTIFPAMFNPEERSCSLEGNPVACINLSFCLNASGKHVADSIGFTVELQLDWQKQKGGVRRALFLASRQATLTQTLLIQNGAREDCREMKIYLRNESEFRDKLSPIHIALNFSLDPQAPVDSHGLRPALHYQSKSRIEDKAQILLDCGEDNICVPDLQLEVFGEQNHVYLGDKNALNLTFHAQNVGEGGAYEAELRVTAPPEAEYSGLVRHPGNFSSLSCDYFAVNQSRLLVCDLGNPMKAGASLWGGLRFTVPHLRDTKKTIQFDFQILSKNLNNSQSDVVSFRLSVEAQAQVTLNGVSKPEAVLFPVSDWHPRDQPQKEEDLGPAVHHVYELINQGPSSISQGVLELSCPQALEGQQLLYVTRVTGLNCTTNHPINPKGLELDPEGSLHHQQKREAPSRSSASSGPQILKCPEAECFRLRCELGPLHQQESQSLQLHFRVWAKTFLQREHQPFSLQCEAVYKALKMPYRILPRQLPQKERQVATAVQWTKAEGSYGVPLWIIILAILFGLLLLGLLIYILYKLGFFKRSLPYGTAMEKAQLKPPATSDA
# Sequence of UniProt P08648 (P05556 21-798, chain 2 of 2, further chain): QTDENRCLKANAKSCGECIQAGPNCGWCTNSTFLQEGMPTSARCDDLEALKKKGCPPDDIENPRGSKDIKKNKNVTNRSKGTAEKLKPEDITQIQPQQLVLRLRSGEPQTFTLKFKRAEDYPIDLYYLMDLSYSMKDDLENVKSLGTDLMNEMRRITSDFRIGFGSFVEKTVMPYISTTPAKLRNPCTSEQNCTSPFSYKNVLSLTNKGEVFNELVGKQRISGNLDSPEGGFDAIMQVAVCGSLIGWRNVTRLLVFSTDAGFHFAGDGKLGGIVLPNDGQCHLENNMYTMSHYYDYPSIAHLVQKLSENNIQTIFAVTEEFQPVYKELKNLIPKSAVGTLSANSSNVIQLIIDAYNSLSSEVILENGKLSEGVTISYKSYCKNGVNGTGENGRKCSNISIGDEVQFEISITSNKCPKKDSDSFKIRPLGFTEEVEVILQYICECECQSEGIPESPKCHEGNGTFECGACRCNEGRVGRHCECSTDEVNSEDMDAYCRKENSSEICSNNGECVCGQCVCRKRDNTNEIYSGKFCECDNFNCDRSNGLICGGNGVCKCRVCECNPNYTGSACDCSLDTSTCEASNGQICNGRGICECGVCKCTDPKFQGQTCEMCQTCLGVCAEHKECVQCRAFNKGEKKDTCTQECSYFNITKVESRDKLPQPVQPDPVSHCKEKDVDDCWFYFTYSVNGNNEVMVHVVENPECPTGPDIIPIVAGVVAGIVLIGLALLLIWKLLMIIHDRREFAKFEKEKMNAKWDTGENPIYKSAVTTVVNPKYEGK
substance,measurement,setting,value
"soluble recombinant InvL lacking the N-terminal signal sequence, with a C-terminal His10 tag (natural protein)",Kd,fibrinogen,0.19 nM
same,Kd,collagen V,15000 nM
same,Kd,α5β1 integrin,0.38 nM
